Test results reported in patent US20160122431A1 (MAYO FOUNDATION FOR MEDICAL EDUCATION AND RESEARCH, published 2016).

Tests used:
murine B7-DC = biological target: T1, murine B7-DC (murine, UniProt Q9WUL5 20-247); test: cell-based or functional assay
T1 sequence (looked up): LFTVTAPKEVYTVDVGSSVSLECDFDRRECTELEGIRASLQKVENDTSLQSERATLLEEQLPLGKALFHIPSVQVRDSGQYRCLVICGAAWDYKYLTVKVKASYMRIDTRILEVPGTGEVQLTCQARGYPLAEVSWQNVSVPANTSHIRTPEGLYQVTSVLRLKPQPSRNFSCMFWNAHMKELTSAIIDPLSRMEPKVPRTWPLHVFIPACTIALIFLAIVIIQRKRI

human B7-DC = biological target: T2, human B7-DC (human, UniProt Q9BQ51 20-273); test: flow cytometry on Ltk cells transiently transfected with human B7-DC
T2 construct: whole, on cells; also called hB7.DC; human B7-DC orthologue
T2 sequence (looked up): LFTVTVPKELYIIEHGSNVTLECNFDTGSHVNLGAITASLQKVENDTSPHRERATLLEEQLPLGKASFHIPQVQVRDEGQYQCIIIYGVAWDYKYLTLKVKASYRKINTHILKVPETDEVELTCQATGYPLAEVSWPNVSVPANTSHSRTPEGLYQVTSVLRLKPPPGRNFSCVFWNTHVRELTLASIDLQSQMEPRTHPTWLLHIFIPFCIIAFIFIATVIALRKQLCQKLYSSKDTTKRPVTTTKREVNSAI
From the text: Furthermore, the level of sHIgM12 binding to L-cells was positively correlated with the amount of B7-DC plasmid used in the transfection.

B1: sHIgM12 (human monoclonal IgM antibody, pentameric) (antibody)
heavy: QVQLQESGPGLLKPSETLSLTCTVSGGSVSLYYWSWIRQSPGKEPEWIGYIYSSGSTDYNPSLRSRVTISLDTSNNRFSLNLRSVTAADTAVYWCARSASIRGWFDPWGQGTLVTVSSGSASAPTLFPLVSCENSPSDTSSVAVGCLAQDFLPDSITFSWKYKNNSDISSTRGFPSVLRGGKYAATSQVLLPSKDVMQGTDEHVVCKVQHPNGNKEKNVPLPVIAELPPKVSVFVPPRDGFFGNPRKSKLICQATGFSPRQIQVSWLREGKQVGSGVTTDQVQAEAKESGPTTYKVTSTLTIKESDWLSQSMFTCRVDHRGLTFQQNASSMCVPDQDTAIRVFAIPPSFASIFLTKSTKLTCLVTDLTTYDSVTISWTRQNGEAVKTHTNISESHPNATFSAVGEASICEDDWNSGERFTCTVTHTDLPSPLKQTISRPKGVALHRPDVYLLPPAREQLNLRESATITCLVTGFSPADVFVQWMQRGQPLSPEKYVTSAPMPEPQAPGRYFAHSILTVSEEEWNTGETYTCVVAHEALPNRVTERTVDKSTGKPTLYNVSLVMSDTAGTCY
light: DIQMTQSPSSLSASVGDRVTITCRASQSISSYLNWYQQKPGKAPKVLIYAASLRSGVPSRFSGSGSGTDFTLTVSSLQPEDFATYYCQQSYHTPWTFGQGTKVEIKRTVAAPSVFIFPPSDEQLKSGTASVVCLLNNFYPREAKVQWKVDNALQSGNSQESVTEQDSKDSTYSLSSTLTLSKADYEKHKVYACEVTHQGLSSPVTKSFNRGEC
notes: IgM/kappa purified from human patient serum; A J chain is not mentioned; also called B7-DC cross-linking antibody; sHIgM12 antibody
Murine B7-DC
  GFP+, CD11c+ DC recovered from draining lymph nodes after adoptive transfer: 5 fold
  IL-12 p70 release by DC (ELISA), against LPS: ~3 fold
  ability of lymph node DC to induce an antigen-specific T cell response: 10 fold
Human B7-DC
  binding result: binds
